From the supplement of paper PMC12764529
± gives the half width of the 95% confidence interval.

Experiment: folding stability dG unfold (combined trypsin and chymotrypsin); higher = more stable
Outline: (§1)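 Mini-proteins designed to be under 80 residues and free of cysteine were carried in a PA-tagged cDNA display construct and digested with trypsin and with chymotrypsin. Each protease was applied at 11 threefold-diluted concentrations, alongside a no-protease condition, before sequencing. K50 came from Bayesian fitting of the sequencing counts, and unfolding free energy was obtained by comparing it with a sequence-predicted unfolded-state K50 and a shared folded-state K50, for each protease separately or for both together. Designs were retained only if their AlphaFold2 dimer inter-PAE exceeded 15.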

Sequence | folding stability dG unfold
MKVVFTEEELPDAKVRKVFDPETGTITETVTYPSTSYTVTSTATITSFDPETGKVTITTTVSAPPEAGIPAS [r1_234_JUSTAS] | 1.63 ± 0.13 kcal/mol
SPNLKPVEFPIKIPGYKIRRVSIWKSPDGPVEIFVRFPDGWYYEFEIPPNGDIQPMKITEAVPPDEDKKNSA [r9_1075_TrROS] | 1.38 ± 0.16 kcal/mol
SAGGSMKIEKLPDGKTVVIETVDEETNTITRTRFKLDKDGKLVEMEVETITLPAPPPEEVDEDGKESAGGSA [r2_375_TrROS_Hall] | 2.17 ± 0.16 kcal/mol
SAGGSAGGSDDTAEFEGPVNVTLTLDGKPVNINAWVTRLPPGWFRIVLPDGVIELPGGNLRVGSAGGSAGGS [r12_790_TrMRF] | 1.16 ± 0.051 kcal/mol
SAGGSAGGSAGRRIVFQFPLGMPIDEIADELADNGYEVEINWEPDPNGWMTFVIEITPPDSAGGSAGGSAGG [r11_1050_TrROS] | 1.97 ± 0.11 kcal/mol
SAGGSAGGSAKAKVIKTEEFELPNGVRIRIEYIEVDGKLIEKVEIEIKAESEEQKKALEKASAGGSAGGSAG [r3_158_TrROS_Hall] | 1.71 ± 0.17 kcal/mol
SAGGSAGGSAMPIKYLFPKDKSLEDILDEIIKKTGKPKSEIKNIKLEEIDDEEGFYVAYVESAGGSAGGSAG [r3_26_TrMRF] | 1.36 ± 0.22 kcal/mol
SAGGEKITAEELVEEIQKIFNENGMKPVAIEPMPDGGVFIHFKNPYMIMIDAEEGKIEIMPPEDMEDFSAGG [r13_717_TrROS] | 1.09 ± 0.27 kcal/mol
SMYKLSVYRNGQPVPEEEALERVKRIEEELGREVDPEELARLLAAEPDTVVTVTKYAEPGKPIGTLTYTRSA [r9_1045_JUSTAS] | 1.39 ± 0.16 kcal/mol
SAGGSAGGSAGGETVVLVTYDKETKTLTVQTFELENGELKTTTKTVTLTDEQLESLPPASAGGSAGGSAGGS [r10_291_TrROS_Hall] | 1.87 ± 0.18 kcal/mol
SAGGSAGGVTINFPDGVTIMVDPGTGKIYIMNPNGYIFKFTIERKPNEWKLKIEPIKPIPPDDFSAGGSAGG [r6_324_TrROS] | 3.16 ± 0.19 kcal/mol
SAGGSAGGSAKPVYKIRIVVKKDGKEFVKEIEVPEDEEEAEALAKELAKKPEVEKVEVEKVSAGGSAGGSAG [r3_310_TrROS_Hall] | 1.62 ± 0.18 kcal/mol
SAGGEVKTLEVTLEVNGKKVRVRVELTKDGTLKVTVTFEDGTKVELEIKLPKVKVKEVKFYSLEELKSAGGS [r16_48_TrROS_Hall] | 2.06 ± 0.1 kcal/mol
SAGGKLTLELEFELEDGLRVRLRVEVDEDGELRVTLEVEPEPPPPPIRVVKNEDGSEYVYRNGKLYKLSAGG [r13_151_TrROS_Hall] | 4.16 ± 0.84 kcal/mol
SAGGSAGGSAGMTLIYKDPETGKYYIVDFEESGPERVFEVDSLDEAEEIAEKLGRKLDPLSAGGSAGGSAGG [r11_1049_TrMRF] | 2.31 ± 0.055 kcal/mol
SAGGSAGGKKKYRALITLRSKDGKPIAPIEIETDSPEELLKTAKKIIEEATKENEPVEIKVEEYSAGGSAGG [r6_285_TrMRF] | 1.59 ± 0.11 kcal/mol

Experiment: folding stability dG unfold from chymotrypsin proteolysis; higher = more stable
Outline: as §1

Sequence | folding stability dG unfold
SAMVIIRVENKDGKTIEIAIPVRNEDGKLTKEELEELAKRLAEELAEELGLEDVKVEVEVRPLSEEELKSAG [r14_378_TrROS_Hall] | 2.68 ± 0.081 kcal/mol
SAGGSKELKPGDIITFPKSVSEEEIKEKVKELMEKYGIKGIISIEKKSPNSYIVKIEYPDGNPLAISAGGSA [r2_168_JUSTAS] | 1.34 ± 0.081 kcal/mol
SAGGSAGGSAGKPNIKKEANLEIFVTEDELEKALEIVKKLEEEGIEVKEAKIYVLKPEEGSAGGSAGGSAGG [r11_533_TrMRF] | -0.299 ± 0.39 kcal/mol
SAGMLSVEQLLEALKEGKEILIVAESPEERERAKRLLAEELGLSEEEIDALLKKAKIKVLPADDPELKKSAG [r5_368_TrROS_Hall] | 2.72 ± 0.16 kcal/mol
SAPPLPPETITLTLTIDGYEITVTLTRLPDGTVKLTVTVTLPDGTTVTITMYFDAKTNKWYITKIEITPPSA [r9_795_TrROS_Hall] | 5.19 ± 0.12 kcal/mol
SAGGSAKVKIYLIKLPPNGNPLEVIKKVKEKGGNAIIVSGPGLHAVIEADEPEEAAKKAKEILEKLSAGGSA [r15_546_TrMRF] | 0.121 ± 0.2 kcal/mol
SAGPAPGAPWEKVEIVAEAWVPTAGGKAVPVVLARAPDGSLLATFPDGTVRVVVPGAGPEVTVELPLASAGG [r19_199_TrMRF] | 2.032 ± 0.016 kcal/mol
SANEKVTVEVKIRFYFRFPKGQPFPFDITVPVTVEYDPNDPDKAKEEAKEKAIDEAIDEFRERFGYPLPSAG [r14_117_TrROS] | 2.72 ± 0.13 kcal/mol
SAGGSSGSMSPVLSLFEPGTGVVTYLLKKNDKLYLLVSTGSPGVPPVPSSVSPANLAAGDPVWATAGSAGGS [r16_809_JUSTAS] | 0.77 ± 0.13 kcal/mol
SAGGGSDTVPPVPKATITFTLPAESPEEAEAAAEEIARELEEEGGIPATATVTTDPETGTVTVTITLESAGG [r13_517_TrMRF] | 0.672 ± 0.059 kcal/mol
SAGGSAGGSAGGMPVTLNVTVKTKDPDGVAATETVTLTFSSPEEALAAIKAAYPNSTIESAGGSAGGSAGGS [r10_1248_JUSTAS] | 1.33 ± 0.061 kcal/mol
SAGELKPGQIVVRTIEIDLPEEDEELREAIERGELIELELEDGSRVLMRVERKDGKLRITEVVILPRPESAG [r5_223_TrROS_Hall] | 3.16 ± 0.029 kcal/mol
SAMELEFETDGSVSVEELIEEFKKAFPLVKEIEAEAEPIPYIPKYKVRFKIKLVPVPTPEEIEEFGKKKSAG [r14_645_TrMRF] | 1.37 ± 0.21 kcal/mol
SAGGSAGGSAGGSMPTYRITVEVDGKKYTITVREGMSPEEIAKRLKELYPNLTVKIEPVSAGGSAGGSAGGS [r4_155_TrROS_Hall] | 4.07 ± 0.15 kcal/mol
SAGGMPDITEVELLDVEYDPETGTYRFRVKVKLKDGTEREVEIPFVDEDGDFGIEEILKAAEELVEESAGGS [r16_221_TrMRF] | 4 ± 0.045 kcal/mol
MKVVFTEEELPDAKVRKVFDPETGTITETVTYPSTSYTVTSTATITSFDPETGKVTITTTVSAPPEAGIPAS [r1_234_JUSTAS] | 1.31 ± 0.057 kcal/mol

Sequence | folding stability dG unfold
SPNLKPVEFPIKIPGYKIRRVSIWKSPDGPVEIFVRFPDGWYYEFEIPPNGDIQPMKITEAVPPDEDKKNSA [r9_1075_TrROS] | 1.14 ± 0.17 kcal/mol
SAGGSMKIEKLPDGKTVVIETVDEETNTITRTRFKLDKDGKLVEMEVETITLPAPPPEEVDEDGKESAGGSA [r2_375_TrROS_Hall] | 2.3 ± 0.092 kcal/mol
SAGGSAGGSDDTAEFEGPVNVTLTLDGKPVNINAWVTRLPPGWFRIVLPDGVIELPGGNLRVGSAGGSAGGS [r12_790_TrMRF] | 1.31 ± 0.069 kcal/mol
SAGGSAGGSAGRRIVFQFPLGMPIDEIADELADNGYEVEINWEPDPNGWMTFVIEITPPDSAGGSAGGSAGG [r11_1050_TrROS] | 2.31 ± 0.097 kcal/mol
SAGGSAGGSAKAKVIKTEEFELPNGVRIRIEYIEVDGKLIEKVEIEIKAESEEQKKALEKASAGGSAGGSAG [r3_158_TrROS_Hall] | 1.82 ± 0.15 kcal/mol
SAGGSAGGSAMPIKYLFPKDKSLEDILDEIIKKTGKPKSEIKNIKLEEIDDEEGFYVAYVESAGGSAGGSAG [r3_26_TrMRF] | 1.13 ± 0.13 kcal/mol
SAGGEKITAEELVEEIQKIFNENGMKPVAIEPMPDGGVFIHFKNPYMIMIDAEEGKIEIMPPEDMEDFSAGG [r13_717_TrROS] | 1.49 ± 0.13 kcal/mol
SMYKLSVYRNGQPVPEEEALERVKRIEEELGREVDPEELARLLAAEPDTVVTVTKYAEPGKPIGTLTYTRSA [r9_1045_JUSTAS] | 1.4 ± 0.17 kcal/mol
SAGGSAGGSAGGETVVLVTYDKETKTLTVQTFELENGELKTTTKTVTLTDEQLESLPPASAGGSAGGSAGGS [r10_291_TrROS_Hall] | 1.99 ± 0.083 kcal/mol
SAGGSAGGVTINFPDGVTIMVDPGTGKIYIMNPNGYIFKFTIERKPNEWKLKIEPIKPIPPDDFSAGGSAGG [r6_324_TrROS] | 3.7 ± 0.091 kcal/mol
SAGGSAGGSAKPVYKIRIVVKKDGKEFVKEIEVPEDEEEAEALAKELAKKPEVEKVEVEKVSAGGSAGGSAG [r3_310_TrROS_Hall] | 1.84 ± 0.058 kcal/mol
SAGGEVKTLEVTLEVNGKKVRVRVELTKDGTLKVTVTFEDGTKVELEIKLPKVKVKEVKFYSLEELKSAGGS [r16_48_TrROS_Hall] | 1.78 ± 0.05 kcal/mol
SAGGKLTLELEFELEDGLRVRLRVEVDEDGELRVTLEVEPEPPPPPIRVVKNEDGSEYVYRNGKLYKLSAGG [r13_151_TrROS_Hall] | 5.18 ± 0.45 kcal/mol
SAGGSAGGSAGMTLIYKDPETGKYYIVDFEESGPERVFEVDSLDEAEEIAEKLGRKLDPLSAGGSAGGSAGG [r11_1049_TrMRF] | 2.591 ± 0.018 kcal/mol
SAGGSAGGKKKYRALITLRSKDGKPIAPIEIETDSPEELLKTAKKIIEEATKENEPVEIKVEEYSAGGSAGG [r6_285_TrMRF] | 1.8 ± 0.093 kcal/mol
